Data published in patent publication US20230242654A1, “REAGENTS FOR EXPANDING CELLS EXPRESSING RECOMBINANT RECEPTORS” (Juno Therapeutics, Inc., priority 2017, published 2023).

System: anti-BCMA CARs
Experiment: BCMA-Fc fusion protein binding to CAR T cells by flow cytometry
Conditions: versus T cells expressing CARs that do not bind BCMA
Description: The clone encoding the recombinant human BCMA-Fc fusion construct with the N-terminal CD33 leader sequence (SEQ ID NO: 30) was inserted into an expression vector and expressed in HEK 293 cells. Supernatant from the transiently transfected HEK cells was harvested after 5 days and the BCMA-FC fusion protein was purified by protein A affinity chromatography and size exclusion chromatography (SEC). The resulting BCMA-Fc fusion protein was determined to have a purity of greater than 95% as assessed by gel permeation chromatography.

B1: BCMA-Fc fusion protein: extracellular domain of human BCMA and a human IgG1 Fc connected with a linker (SEQ ID NO: 35) (protein)
chain: MLQMAGQCSQNEYFDSLLHACIPCQLRCSSNTPPLTCQRYCNASVTNSVKGTNAGGGGSPKSSDKTHTCPPCPAPEAEGAPSVFLFPPKPKDTLMISRTPEVTCVVVDVSHEDPEVKFNWYVDGVEVHNAKTKPREEQYNSTYRVVSVLTVLHQDWLNGKEYKCKVSNKALPSSIEKTISKAKGQPREPQVYTLPPSRDELTKNQVSLTCLVKGFYPSDIAVEWESNGQPENNYKTTPPVLDSDGSFFLYSKLTVDKSRWQQGNVFSCSVMHEALHNHYTQKSLSLSPGK
modifications: BCMA-Fc fusion polypeptide
binding of BCMA-Fc to CAR expressing T cells: specifically bound to anti-BCMA CAR expressing T cells
